These results are taken from IntAct's records for PubMed 31515488.

The labels stand for the following.
B1: Transcription factor 12 (Homo sapiens), Q99081 (parent)
chain: MNPQQQRMAAIGTDKELSDLLDFSAMFSPPVNSGKTRPTTLGSSQFSGSGIDERGGTTSWGTSGQPSPSYDSSRGFTDSPHYSDHLNDSRLGAHEGLSPTPFMNSNLMGKTSERGSFSLYSRDTGLPGCQSSLLRQDLGLGSPAQLSSSGKPGTAYYSFSATSSRRRPLHDSAALDPLQAKKVRKVPPGLPSSVYAPSPNSDDFNRESPSYPSPKPPTSMFASTFFMQDGTHNSSDLWSSSNGMSQPGFGGILGTSTSHMSQSSSYGNLHSHDRLSYPPHSVSPTDINTSLPPMSSFHRGSTSSSPYVAASHTPPINGSDSILGTRGNAAGSSQTGDALGKALASIYSPDHTSSSFPSNPSTPVGSPSPLTGTSQWPRPGGQAPSSPSYENSLHSLQSRMEDRLDRLDDAIHVLRNHAVGPSTSLPAGHSDIHSLLGPSHNAPIGSLNSNYGGSSLVASSRSASMVGTHREDSVSLNGNHSVLSSTVTTSSTDLNHKTQENYRGGLQSQSGTVVTTEIKTENKEKDENLHEPPSSDDMKSDDESSQKDIKVSSRGRTSSTNEDEDLNPEQKIEREKERRMANNARERLRVRDINEAFKELGRMCQLHLKSEKPQTKLLILHQAVAVILSLEQQVRERNLNPKAACLKRREEEKVSAVSAEPPTTLPGTHPGLSETTNPMGHM
partner: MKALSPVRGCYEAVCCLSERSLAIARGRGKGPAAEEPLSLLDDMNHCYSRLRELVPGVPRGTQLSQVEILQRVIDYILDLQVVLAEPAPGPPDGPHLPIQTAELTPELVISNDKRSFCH
B2: Protein ZNRD2 (Homo sapiens), O60232 (parent)
chain: MALNGAEVDDFSWEPPTEAETKVLQARRERQDRISRLMGDYLLRGYRMLGETCADCGTILLQDKQRKIYCVACQELDSDVDKDNPALNAQAALSQAREHQLASASELPLGSRPAPQPPVPRPEHCEGAAAGLKAAQGPPAPAVPPNTDVMACTQTALLQKLTWASAELGSSTSLETSIQLCGLIRACAEALRSLQQLQH
partner: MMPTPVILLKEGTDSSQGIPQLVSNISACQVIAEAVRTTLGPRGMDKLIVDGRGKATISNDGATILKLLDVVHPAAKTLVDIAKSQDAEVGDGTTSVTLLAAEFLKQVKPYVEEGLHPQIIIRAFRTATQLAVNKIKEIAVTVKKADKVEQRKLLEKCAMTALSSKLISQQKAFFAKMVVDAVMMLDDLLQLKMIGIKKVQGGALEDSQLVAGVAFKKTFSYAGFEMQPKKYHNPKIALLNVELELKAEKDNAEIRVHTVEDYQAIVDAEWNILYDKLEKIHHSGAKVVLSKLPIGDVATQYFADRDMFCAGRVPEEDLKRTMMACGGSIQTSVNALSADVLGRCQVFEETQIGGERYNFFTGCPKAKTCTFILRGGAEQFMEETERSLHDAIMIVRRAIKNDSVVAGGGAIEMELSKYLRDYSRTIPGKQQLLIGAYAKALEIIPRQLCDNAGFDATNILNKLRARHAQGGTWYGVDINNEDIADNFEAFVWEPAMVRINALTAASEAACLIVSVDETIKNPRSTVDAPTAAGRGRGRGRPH
B3: Pyruvate dehydrogenase protein X component, mitochondrial (Homo sapiens), O00330 (parent)
chain: MAASWRLGCDPRLLRYLVGFPGRRSVGLVKGALGWSVSRGANWRWFHSTQWLRGDPIKILMPSLSPTMEEGNIVKWLKKEGEAVSAGDALCEIETDKAVVTLDASDDGILAKIVVEEGSKNIRLGSLIGLIVEEGEDWKHVEIPKDVGPPPPVSKPSEPRPSPEPQISIPVKKEHIPGTLRFRLSPAARNILEKHSLDASQGTATGPRGIFTKEDALKLVQLKQTGKITESRPTPAPTATPTAPSPLQATAGPSYPRPVIPPVSTPGQPNAVGTFTEIPASNIRRVIAKRLTESKSTVPHAYATADCDLGAVLKVRQDLVKDDIKVSVNDFIIKAAAVTLKQMPDVNVSWDGEGPKQLPFIDISVAVATDKGLLTPIIKDAAAKGIQEIADSVKALSKKARDGKLLPEEYQGGSFSISNLGMFGIDEFTAVINPPQACILAVGRFRPVLKLTEDEEGNAKLQQRQLITVTMSSDSRVVDDELATRFLKSFKANLENPIRLA
B4: Thioredoxin-like protein 4B (Homo sapiens), Q9NX01 (parent)
chain: MSFLLPKLTSKKEVDQAIKSTAEKVLVLRFGRDEDPVCLQLDDILSKTSSDLSKMAAIYLVDVDQTAVYTQYFDISYIPSTVFFFNGQHMKVDYGSPDHTKFVGSFKTKQDFIDLIEVIYRGAMRGKLIVQSPIDPKNIPKYDLLYQDI
B5: Paraneoplastic antigen Ma2 (Homo sapiens), Q9UL42 (parent)
chain: MALALLEDWCRIMSVDEQKSLMVTGIPADFEEAEIQEVLQETLKSLGRYRLLGKIFRKQENANAVLLELLEDTDVSAIPSEVQGKGGVWKVIFKTPNQDTEFLERLNLFLEKEGQTVSGMFRALGQEGVSPATVPCISPELLAHLLGQAMAHAPQPLLPMRYRKLRVFSGSAVPAPEEESFEVWLEQATEIVKEWPVTEAEKKRWLAESLRGPALDLMHIVQADNPSISVEECLEAFKQVFGSLESRRTAQVRYLKTYQEEGEKVSAYVLRLETLLRRAVEKRAIPRRIADQVRLEQVMAGATLNQMLWCRLRELKDQGPPPSFLELMKVIREEEEEEASFENESIEEPEERDGYGRWNHEGDD
partner: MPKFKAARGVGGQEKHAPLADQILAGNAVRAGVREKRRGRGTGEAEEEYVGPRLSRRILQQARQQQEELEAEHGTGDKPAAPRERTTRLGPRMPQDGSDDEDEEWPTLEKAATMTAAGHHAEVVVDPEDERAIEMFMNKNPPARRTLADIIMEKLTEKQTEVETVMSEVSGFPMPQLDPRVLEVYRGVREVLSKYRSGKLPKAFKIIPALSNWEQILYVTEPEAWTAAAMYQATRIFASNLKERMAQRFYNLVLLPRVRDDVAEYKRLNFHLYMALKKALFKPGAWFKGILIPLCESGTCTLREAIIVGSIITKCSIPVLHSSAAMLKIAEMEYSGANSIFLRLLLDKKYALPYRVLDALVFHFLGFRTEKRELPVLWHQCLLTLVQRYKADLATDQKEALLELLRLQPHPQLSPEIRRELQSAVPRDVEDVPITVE
B6: Transcription factor 12 (Homo sapiens), Q99081 (parent)
chain: B1 chain
B7: E3 ubiquitin-protein ligase RNF8 (Homo sapiens), O76064 (parent)
chain: MGEPGFFVTGDRAGGRSWCLRRVGMSAGWLLLEDGCEVTVGRGFGVTYQLVSKICPLMISRNHCVLKQNPEGQWTIMDNKSLNGVWLNRARLEPLRVYSIHQGDYIQLGVPLENKENAEYEYEVTEEDWETIYPCLSPKNDQMIEKNKELRTKRKFSLDELAGPGAEGPSNLKSKINKVSCESGQPVKSQGKGEVASTPSDNLDPKLTALEPSKTTGAPIYPGFPKVTEVHHEQKASNSSASQRSLQMFKVTMSRILRLKIQMQEKHEAVMNVKKQTQKGNSKKVVQMEQELQDLQSQLCAEQAQQQARVEQLEKTFQEEEQHLQGLEIAQGEKDLKQQLAQALQEHWALMEELNRSKKDFEAIIQAKNKELEQTKEEKEKMQAQKEEVLSHMNDVLENELQCIICSEYFIEAVTLNCAHSFCSYCINEWMKRKIECPICRKDIKSKTYSLVLDNCINKMVNNLSSEVKERRIVLIRERKAKRLF
B8: Tripartite motif-containing protein 29 (Homo sapiens), Q14134 (parent)
chain: MEAADASRSNGSSPEARDARSPSGPSGSLENGTKADGKDAKTTNGHGGEAAEGKSLGSALKPGEGRSALFAGNEWRRPIIQFVESGDDKNSNYFSMDSMEGKRSPYAGLQLGAAKKPPVTFAEKGELRKSIFSESRKPTVSIMEPGETRRNSYPRADTGLFSRSKSGSEEVLCDSCIGNKQKAVKSCLVCQASFCELHLKPHLEGAAFRDHQLLEPIRDFEARKCPVHGKTMELFCQTDQTCICYLCMFQEHKNHSTVTVEEAKAEKETELSLQKEQLQLKIIEIEDEAEKWQKEKDRIKSFTTNEKAILEQNFRDLVRDLEKQKEEVRAALEQREQDAVDQVKVIMDALDERAKVLHEDKQTREQLHSISDSVLFLQEFGALMSNYSLPPPLPTYHVLLEGEGLGQSLGNFKDDLLNVCMRHVEKMCKADLSRNFIERNHMENGGDHRYVNNYTNSFGGEWSAPDTMKRYSMYLTPKGGVRTSYQPSSPGRFTKETTQKNFNNLYGTKGNYTSRVWEYSSSIQNSDNDLPVVQGSSSFSLKGYPSLMRSQSPKAQPQTWKSGKQTMLSHYRPFYVNKGNGIGSNEAP
B9: Max-like protein X (Homo sapiens), Q9UH92 (parent)
chain: MTEPGASPEDPWVKASPVGAHAGEGRAGRARARRGAGRRGASLLSPKSPTLSVPRGCREDSSHPACAKVEYAYSDNSLDPGLFVESTRKGSVVSRANSIGSTSASSVPNTDDEDSDYHQEAYKESYKDRRRRAHTQAEQKRRDAIKRGYDDLQTIVPTCQQQDFSIGSQKLSKAIVLQKTIDYIQFLHKEKKKQEEEVSTLRKDVTALKIMKVNYEQIVKAHQDNPHEGEDQVSDQVKFNVFQGIMDSLFQSFNASISVASFQELSACVFSWIEEHCKPQTLREIVIGVLHQLKNQLY
partner: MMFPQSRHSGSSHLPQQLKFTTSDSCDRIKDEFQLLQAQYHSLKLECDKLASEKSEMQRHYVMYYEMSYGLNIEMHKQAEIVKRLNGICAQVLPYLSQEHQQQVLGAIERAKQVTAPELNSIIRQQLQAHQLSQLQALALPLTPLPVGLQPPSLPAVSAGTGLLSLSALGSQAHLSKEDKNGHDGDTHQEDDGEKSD
B10: Hypoxia-inducible factor 1-alpha inhibitor (Homo sapiens), Q9NWT6 (parent)
chain: MAATAAEAVASGSGEPREEAGALGPAWDESQLRSYSFPTRPIPRLSQSDPRAEELIENEEPVVLTDTNLVYPALKWDLEYLQENIGNGDFSVYSASTHKFLYYDEKKMANFQNFKPRSNREEMKFHEFVEKLQDIQQRGGEERLYLQQTLNDTVGRKIVMDFLGFNWNWINKQQGKRGWGQLTSNLLLIGMEGNVTPAHYDEQQNFFAQIKGYKRCILFPPDQFECLYPYPVHHPCDRQSQVDFDNPDYERFPNFQNVVGYETVVGPGDVLYIPMYWWHHIESLLNGGITITVNFWYKGAPTPKRIEYPLKAHQKVAIMRNIEKMLGEALGNPQEVGPLLNTMIKGRYN

Variants of B1 are the subject of the first test. The note with it: with id3_human ID3, Q02535.
As to A458V, the “effect of a mutation on the interaction” value is listed as “with no effect”.

As to N479S, the “effect of a mutation on the interaction” value was “with no effect”. Still for that read-out and setting: for G300S the value was “with no effect”; for L483R, “with no effect”; for I11M, “with no effect”. D565V: the “effect of a mutation on the interaction” value is recorded as “with no effect”.

Variants of B2 are the subject of another test. The note with it: with tcph_human CCT7, Q99832.
For the variant T21M, the “effect of a mutation on the interaction” value is recorded as “with no effect”.

Variants of B3 are the subject of another test. The note with it: with atrap_human AGTRAP.
In the case of N270S, the “effect of a mutation on the interaction” value is “with no effect”.

In the next test the parent is B4. The note with it: with itf2_human TCF4, P15884.
itf2_human TCF4, P15884, sequence (P15884 whole entry): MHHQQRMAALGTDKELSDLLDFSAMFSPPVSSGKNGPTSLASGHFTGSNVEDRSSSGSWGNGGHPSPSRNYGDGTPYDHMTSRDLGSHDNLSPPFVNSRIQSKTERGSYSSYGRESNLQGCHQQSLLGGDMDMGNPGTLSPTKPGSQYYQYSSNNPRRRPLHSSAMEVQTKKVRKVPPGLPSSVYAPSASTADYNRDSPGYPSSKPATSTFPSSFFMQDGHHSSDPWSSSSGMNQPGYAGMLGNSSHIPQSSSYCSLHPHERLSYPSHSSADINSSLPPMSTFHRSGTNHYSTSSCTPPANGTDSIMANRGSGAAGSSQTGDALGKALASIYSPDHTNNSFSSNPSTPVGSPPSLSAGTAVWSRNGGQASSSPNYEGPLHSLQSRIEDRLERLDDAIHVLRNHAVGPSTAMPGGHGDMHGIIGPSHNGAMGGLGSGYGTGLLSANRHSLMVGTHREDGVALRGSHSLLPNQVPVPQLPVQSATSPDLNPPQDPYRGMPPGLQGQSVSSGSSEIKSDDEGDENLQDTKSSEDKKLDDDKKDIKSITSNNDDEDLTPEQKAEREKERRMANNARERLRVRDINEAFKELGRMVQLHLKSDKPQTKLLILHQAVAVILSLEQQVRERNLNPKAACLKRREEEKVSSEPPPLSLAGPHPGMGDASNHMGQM
With I119M, the “effect of a mutation on the interaction” value was “with no effect”.

The variants in another test derive from B5. The note with it: with byst_human BYSL.
Consider E186K, for which the “effect of a mutation on the interaction” value was “with no effect”.

Variants of B6 are the subject of a further test. The note with it: with psa1_human PSMA1, P25786.
psa1_human PSMA1, P25786, sequence (P25786 whole entry): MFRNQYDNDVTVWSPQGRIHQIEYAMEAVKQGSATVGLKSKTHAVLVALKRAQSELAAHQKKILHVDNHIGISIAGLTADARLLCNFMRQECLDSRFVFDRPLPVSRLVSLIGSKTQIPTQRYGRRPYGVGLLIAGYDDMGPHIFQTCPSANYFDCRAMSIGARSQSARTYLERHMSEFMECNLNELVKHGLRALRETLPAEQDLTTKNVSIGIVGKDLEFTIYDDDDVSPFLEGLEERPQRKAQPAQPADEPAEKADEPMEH
Regarding D565V, the “effect of a mutation on the interaction” value is “with no effect”.

Take L483R: the “effect of a mutation on the interaction” value is “with no effect”. Still for that read-out and setting: as for G300S, the entry is “with no effect”.

Variants of B6 are the subject of a further test. The note with it: with cdn2c_human CDKN2C.
D565V: the “effect of a mutation on the interaction” value is “with no effect”. On the same count and under the same terms, for L483R the value was “with no effect”. Same read-out and setting: for G300S the value was “with no effect”.

Variants of B7 are the subject of the next test. The note with it: with sept3_human SEPTIN3, Q9UH03.
sept3_human SEPTIN3, Q9UH03, sequence (Q9UH03 whole entry): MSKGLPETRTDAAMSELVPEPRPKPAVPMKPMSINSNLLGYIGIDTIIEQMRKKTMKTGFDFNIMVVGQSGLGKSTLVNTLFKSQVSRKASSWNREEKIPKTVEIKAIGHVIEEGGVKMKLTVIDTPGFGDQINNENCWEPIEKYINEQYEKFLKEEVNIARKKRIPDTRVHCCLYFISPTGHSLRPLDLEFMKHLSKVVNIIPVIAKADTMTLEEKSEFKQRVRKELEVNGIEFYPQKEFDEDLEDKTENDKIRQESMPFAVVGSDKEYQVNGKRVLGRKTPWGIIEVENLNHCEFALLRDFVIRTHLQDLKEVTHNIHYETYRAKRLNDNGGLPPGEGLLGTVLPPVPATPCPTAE
Consider V310L, for which the “effect of a mutation on the interaction” value is recorded as “with no effect”.

The variants in a further test derive from B7. The note with it: with wasl_human WASL.
On to V310L, for which the “effect of a mutation on the interaction” value is “with no effect”.

The variants in the next test derive from B8. The note with it: with tri23_human TRIM23, P36406.
tri23_human TRIM23, P36406, sequence (P36406 whole entry): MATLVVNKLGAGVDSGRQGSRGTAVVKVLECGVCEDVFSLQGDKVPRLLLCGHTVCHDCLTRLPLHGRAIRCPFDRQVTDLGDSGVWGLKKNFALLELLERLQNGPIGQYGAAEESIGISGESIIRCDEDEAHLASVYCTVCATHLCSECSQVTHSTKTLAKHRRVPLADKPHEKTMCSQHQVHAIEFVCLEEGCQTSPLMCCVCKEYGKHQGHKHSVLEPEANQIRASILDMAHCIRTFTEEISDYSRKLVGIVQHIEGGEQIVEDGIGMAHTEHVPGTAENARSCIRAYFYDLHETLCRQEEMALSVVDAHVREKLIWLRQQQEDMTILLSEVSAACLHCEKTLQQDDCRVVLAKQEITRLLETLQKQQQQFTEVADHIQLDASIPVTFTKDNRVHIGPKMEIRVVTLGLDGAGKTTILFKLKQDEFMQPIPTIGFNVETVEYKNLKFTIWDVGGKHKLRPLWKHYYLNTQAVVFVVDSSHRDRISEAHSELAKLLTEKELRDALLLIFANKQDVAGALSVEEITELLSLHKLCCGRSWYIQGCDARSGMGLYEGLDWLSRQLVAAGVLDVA
As to S91C, the “effect of a mutation on the interaction” value is “with no effect”.

In a further test the parent is B8. The note with it: with cep70_human CEP70, Q8NHQ1.
cep70_human CEP70, Q8NHQ1, sequence (Q8NHQ1 whole entry): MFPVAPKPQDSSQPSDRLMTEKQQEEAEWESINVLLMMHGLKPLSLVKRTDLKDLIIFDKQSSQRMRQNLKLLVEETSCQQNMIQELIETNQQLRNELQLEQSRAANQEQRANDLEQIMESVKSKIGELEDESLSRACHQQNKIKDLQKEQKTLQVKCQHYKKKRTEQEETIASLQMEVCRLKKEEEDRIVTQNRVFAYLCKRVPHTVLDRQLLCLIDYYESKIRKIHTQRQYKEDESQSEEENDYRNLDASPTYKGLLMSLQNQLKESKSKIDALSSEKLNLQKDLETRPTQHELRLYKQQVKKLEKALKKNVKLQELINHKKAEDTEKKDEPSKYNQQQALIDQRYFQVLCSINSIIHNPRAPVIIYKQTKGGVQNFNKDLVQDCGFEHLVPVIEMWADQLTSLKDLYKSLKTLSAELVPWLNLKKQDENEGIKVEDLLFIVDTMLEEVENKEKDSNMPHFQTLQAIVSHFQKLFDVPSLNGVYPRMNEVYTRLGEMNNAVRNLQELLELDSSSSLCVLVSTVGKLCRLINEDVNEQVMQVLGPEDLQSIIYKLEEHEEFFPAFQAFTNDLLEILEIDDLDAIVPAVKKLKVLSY
Consider S91C, for which the “effect of a mutation on the interaction” value is “with no effect”.

Variants of B8 are the subject of the next test. The note with it: with tri23_human TRIM23, P36406. This is another data set of the same source.
S514F: the “effect of a mutation on the interaction” value is recorded as “with no effect”.

The variants in the next test derive from B8. The note with it: with cep70_human CEP70, Q8NHQ1. The source holds these as a separate data set.
For S514F, the “effect of a mutation on the interaction” value is “disrupting interaction strength”.

The variants in another test derive from B9. The note with it: with tle5_human TLE5, Q08117.
Turning to Q223R, the “effect of a mutation on the interaction” value was “with no effect”.

Variants of B10 are the subject of a further test. The note with it: with asb9_human ASB9, Q96DX5.
asb9_human ASB9, Q96DX5, sequence (Q96DX5 whole entry): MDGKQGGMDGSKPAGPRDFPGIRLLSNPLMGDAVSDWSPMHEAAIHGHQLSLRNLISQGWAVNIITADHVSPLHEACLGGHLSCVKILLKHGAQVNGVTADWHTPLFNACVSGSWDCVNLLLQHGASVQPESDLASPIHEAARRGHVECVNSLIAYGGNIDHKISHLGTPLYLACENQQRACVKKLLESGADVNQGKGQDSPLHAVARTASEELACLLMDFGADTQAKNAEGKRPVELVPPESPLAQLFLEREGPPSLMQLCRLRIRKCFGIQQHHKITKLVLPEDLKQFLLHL
On to P41A, for which the “effect of a mutation on the interaction” value is given as “with no effect”.
